Source: publication PMC9246348

Key:
[1] = substrate: O=c1ccn([C@@H]2O[C@H](CO)[C@@H](O)[C@H]2O)c(=O)[nH]1; experiment: ADP-Glo kinase assay; format: biochemical, Homo sapiens; conditions: 100 µM ATP, 50 mM Tris pH 7.5, 5 mM MgCl2, 2 mM DTT, room temperature
[2] = substrate: Nc1ccn([C@@H]2O[C@H](CO)[C@@H](O)[C@H]2O)c(=O)n1; experiment: ADP-Glo kinase assay; format: biochemical, Homo sapiens; conditions: 100 µM ATP, 50 mM Tris pH 7.5, 5 mM MgCl2, 2 mM DTT, room temperature

B1: UCK2 (Homo sapiens) (protein)
chain: MAGDSEQTLQNHQQPNGGEPFLIGVSGGTASGKSSVCAKIVQLLGQNEVDYRQKQVVILSQDSFYRVLTSEQKAKALKGQFNFDHPDAFDNELILKTLKEITEGKTVQIPVYDFVSHSRKEETVTVYPADVVLFEGILAFYSQEVRDLFQMKLFVDTDADTRLSRRVLRDISERGRDLEQILSQYITFVKPAFEEFCLPTKKYADVIIPRGADNLVAINLIVQHIQDILNGGPSKRQTNGCLNGYTPSRKRQASESSSRPH
Km [1]: 207.3 µM | Vmax [1]: 3.98 µmol/min/mg | kcat/Km [1]: 15000 M⁻¹ s⁻¹ | Km [2]: 25.07 µM | Vmax [2]: 1.09 µmol/min/mg | kcat/Km [2]: 35000 M⁻¹ s⁻¹
